# Measurements published in paper PMC10397247.
# T1: P6-AA-12HAA-R
# T1 chain: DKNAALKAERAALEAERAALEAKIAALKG
# T2: P6-AA-12HAA-H
# T2 chain: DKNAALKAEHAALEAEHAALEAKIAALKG
# T3: 4H87-AA
# T3 chain: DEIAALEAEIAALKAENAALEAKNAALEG
# T4: 4H369-AA
# T4 chain: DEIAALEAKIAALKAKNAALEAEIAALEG
# T5: 4H2614-AA
# T5 chain: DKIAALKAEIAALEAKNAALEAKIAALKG
# T6: 4H3605-AA
# T6 chain: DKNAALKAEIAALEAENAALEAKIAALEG
# T7: 4H2726-AA
# T7 chain: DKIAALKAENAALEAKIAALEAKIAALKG
# T8: 4H4033-AA
# T8 chain: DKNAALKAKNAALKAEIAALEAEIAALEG
# T9: 4H432-AA
# T9 chain: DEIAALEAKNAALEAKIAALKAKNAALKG
# T10: 4H3777-AA
# T10 chain: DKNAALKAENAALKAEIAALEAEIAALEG
# T11: P6-AA-12HGe-S
# T11 chain: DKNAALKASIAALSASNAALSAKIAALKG
# T12: P6-AA-1HAA-K
# T12 chain: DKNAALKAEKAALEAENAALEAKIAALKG
# T13: P6-AA-1HGe-H
# T13 chain: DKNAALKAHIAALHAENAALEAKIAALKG
# T14: P6-AA-12HGe-D
# T14 chain: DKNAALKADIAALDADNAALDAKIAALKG
# T15: P6-AA-1HAA-E
# T15 chain: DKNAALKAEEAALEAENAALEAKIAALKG
# T16: P6-AA-1HAA-H
# T16 chain: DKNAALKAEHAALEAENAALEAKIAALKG
# T17: P6-AA-1HGe-R
# T17 chain: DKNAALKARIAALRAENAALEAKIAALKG
# T18: P6-AA-12HGe-K
# T18 chain: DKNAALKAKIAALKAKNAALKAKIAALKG
# T19: 4H122-AA
# T19 chain: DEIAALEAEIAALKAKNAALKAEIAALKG
# T20: P5-AA-1HAA-K
# T20 chain: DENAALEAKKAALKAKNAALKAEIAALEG
# T21: P5-AA-1HAA-E
# T21 chain: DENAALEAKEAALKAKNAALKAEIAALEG
# T22: P5-AA-12HGe-A
# T22 chain: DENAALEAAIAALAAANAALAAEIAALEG
# T23: P5-AA-12HGe-R
# T23 chain: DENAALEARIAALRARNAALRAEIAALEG
# T24: P5-AA-12HGe-D
# T24 chain: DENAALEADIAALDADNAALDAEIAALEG
# T25: 4H2458-AA
# T25 chain: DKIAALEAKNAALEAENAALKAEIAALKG
# T26: 4H2290-AA
# T26 chain: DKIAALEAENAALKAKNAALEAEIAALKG
# T27: 4H2143-AA
# T27 chain: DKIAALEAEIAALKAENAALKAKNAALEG
# T28: APC2405-AA
# T28 chain: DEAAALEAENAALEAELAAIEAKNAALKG
# T29: APC4264-AA
# T29 chain: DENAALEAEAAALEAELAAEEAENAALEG
# T30: 4H1142-AA
# T30 chain: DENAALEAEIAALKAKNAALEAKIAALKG
# T31: 4H355-AA
# T31 chain: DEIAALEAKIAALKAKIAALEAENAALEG
# T32: 4H2898-AA
# T32 chain: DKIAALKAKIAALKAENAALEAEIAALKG
# T33: 4H2248-AA
# T33 chain: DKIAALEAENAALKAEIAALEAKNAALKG
# T34: 4H2991-AA
# T34 chain: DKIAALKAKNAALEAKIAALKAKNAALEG
# T35: 4H3666-AA
# T35 chain: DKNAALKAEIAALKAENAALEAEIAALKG
# T36: 4H3417-AA
# T36 chain: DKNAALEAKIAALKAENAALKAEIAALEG
# T37: 4H1109-AA
# T37 chain: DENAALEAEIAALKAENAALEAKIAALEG
# T38: 4H3102-AA
# T38 chain: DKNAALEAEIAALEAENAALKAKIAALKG
# T39: 4H1348-AA
# T39 chain: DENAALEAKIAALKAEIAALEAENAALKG
# T40: 4H675-AA
# T40 chain: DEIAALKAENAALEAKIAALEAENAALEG
# T41: O8-AA
# T41 chain: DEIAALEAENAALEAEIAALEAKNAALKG
# T42: O4-AA
# T42 chain: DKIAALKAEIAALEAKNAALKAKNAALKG
# Key:
# Experiment in all cases: two-hybrid library CCmax;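 further: natural log of median RNA to DNA barcode read ratio; higher means stronger binding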
# P6-AA-12HAA-R = molecular target: T1, P6-AA-12HAA-R; settings: mean of both orientations
# P6-AA-12HAA-H = molecular target: T2, P6-AA-12HAA-H; settings: mean of both orientations
# 4H87-AA = molecular target: T3, 4H87-AA; settings: mean of both orientations
# 4H369-AA = molecular target: T4, 4H369-AA; settings: mean of both orientations
# 4H2614-AA = molecular target: T5, 4H2614-AA; settings: mean of both orientations
# 4H3605-AA = molecular target: T6, 4H3605-AA; settings: mean of both orientations
# 4H2726-AA = molecular target: T7, 4H2726-AA; settings: mean of both orientations
# 4H4033-AA = molecular target: T8, 4H4033-AA; settings: mean of both orientations
# 4H432-AA = molecular target: T9, 4H432-AA; settings: mean of both orientations
# 4H3777-AA = molecular target: T10, 4H3777-AA; settings: mean of both orientations
# P6-AA-12HGe-S = molecular target: T11, P6-AA-12HGe-S; settings: mean of both orientations
# P6-AA-1HAA-K = molecular target: T12, P6-AA-1HAA-K; settings: mean of both orientations
# P6-AA-1HGe-H = molecular target: T13, P6-AA-1HGe-H; settings: mean of both orientations
# P6-AA-12HGe-D = molecular target: T14, P6-AA-12HGe-D; settings: mean of both orientations
# P6-AA-1HAA-E = molecular target: T15, P6-AA-1HAA-E; settings: mean of both orientations
# P6-AA-1HAA-H = molecular target: T16, P6-AA-1HAA-H; settings: mean of both orientations
# P6-AA-1HGe-R = molecular target: T17, P6-AA-1HGe-R; settings: mean of both orientations
# P6-AA-12HGe-K = molecular target: T18, P6-AA-12HGe-K; settings: mean of both orientations
# 4H122-AA = molecular target: T19, 4H122-AA; settings: mean of both orientations
# P5-AA-1HAA-K = molecular target: T20, P5-AA-1HAA-K; settings: mean of both orientations
# P5-AA-1HAA-E = molecular target: T21, P5-AA-1HAA-E; settings: mean of both orientations
# P5-AA-12HGe-A = molecular target: T22, P5-AA-12HGe-A; settings: mean of both orientations
# P5-AA-12HGe-R = molecular target: T23, P5-AA-12HGe-R; settings: mean of both orientations
# P5-AA-12HGe-D = molecular target: T24, P5-AA-12HGe-D; settings: mean of both orientations
# 4H2458-AA = molecular target: T25, 4H2458-AA; settings: mean of both orientations
# 4H2290-AA = molecular target: T26, 4H2290-AA; settings: mean of both orientations
# 4H2143-AA = molecular target: T27, 4H2143-AA; settings: mean of both orientations
# APC2405-AA = molecular target: T28, APC2405-AA; settings: mean of both orientations
# APC4264-AA = molecular target: T29, APC4264-AA; settings: mean of both orientations
# 4H1142-AA = molecular target: T30, 4H1142-AA
# 4H355-AA = molecular target: T31, 4H355-AA; settings: mean of both orientations
# 4H2898-AA = molecular target: T32, 4H2898-AA; settings: mean of both orientations
# 4H2248-AA = molecular target: T33, 4H2248-AA; settings: mean of both orientations
# 4H2991-AA = molecular target: T34, 4H2991-AA; settings: mean of both orientations
# 4H3666-AA = molecular target: T35, 4H3666-AA; settings: mean of both orientations
# 4H3417-AA = molecular target: T36, 4H3417-AA; settings: mean of both orientations
# 4H1109-AA = molecular target: T37, 4H1109-AA; settings: mean of both orientations
# 4H3102-AA = molecular target: T38, 4H3102-AA; settings: mean of both orientations
# 4H1348-AA = molecular target: T39, 4H1348-AA; settings: mean of both orientations
# 4H675-AA = molecular target: T40, 4H675-AA; settings: mean of both orientations
# O8-AA = molecular target: T41, O8-AA; settings: mean of both orientations
# O4-AA = molecular target: T42, O4-AA; settings: mean of both orientations
binder,measurement,setting,value
DENAALEAKIAALKAKIAALKAEIAALEG [4H1385-AA],interaction score,P6-AA-12HAA-R,1.72
same,interaction score,P6-AA-12HAA-H,1.75
DENAALEAKIAALKAEIAALEAKIAALKG [4H1350-AA],interaction score,4H87-AA,-0.16
same,interaction score,4H369-AA,0.227
same,interaction score,4H2614-AA,-0.142
same,interaction score,4H3605-AA,-0.433
same,interaction score,4H2726-AA,-0.0467
same,interaction score,4H4033-AA,-0.0842
DEIAALEAENAALKAKNAALKAEIAALEG [4H249-AA],interaction score,4H432-AA,-1.72
same,interaction score,4H3777-AA,-0.457
DENAALEAKIAALKAKNAALKAEIAALEG [4H1401-AA],interaction score,P6-AA-12HGe-S,-0.834
same,interaction score,P6-AA-1HAA-K,2.04
same,interaction score,P6-AA-1HGe-H,1.77
same,interaction score,P6-AA-12HGe-D,-0.647
same,interaction score,P6-AA-1HAA-E,2.01
same,interaction score,P6-AA-1HAA-H,2.06
same,interaction score,P6-AA-1HGe-R,1.53
same,interaction score,P6-AA-12HGe-K,-0.592
DENAALEAENAALEAEIAALEAEIAALEG [4H1153-AA],interaction score,4H122-AA,-1.61
DKNAALKAEIAALEAENAALEAKIAALKG [4H3606-AA],interaction score,P5-AA-1HAA-K,2.15
same,interaction score,P5-AA-1HAA-E,1.24
same,interaction score,P5-AA-12HGe-A,0.833
same,interaction score,P5-AA-12HGe-R,1.65
same,interaction score,P5-AA-12HGe-D,-1.24
DENAALKAKIAALEAKNAALEAKIAALEG [4H1845-AA],interaction score,4H2458-AA,-1.6
same,interaction score,4H2290-AA,-1.92
same,interaction score,4H2143-AA,-1.68
same,interaction score,APC2405-AA,-1.12
same,interaction score,APC4264-AA,-1.79
DENAALEAEIAALKAKNAALEAKIAALKG [4H1142-AA],interaction score,4H1142-AA,0.123
DENAALEAENAALKAKIAALKAEIAALEG [4H1257-AA],interaction score,4H355-AA,-1.88
same,interaction score,4H2898-AA,-1.42
DENAALEAEIAALEAKIAALEAKNAALKG [4H1064-AA],interaction score,4H2248-AA,-1.34
same,interaction score,4H2991-AA,-0.846
same,interaction score,4H3666-AA,-1.27
same,interaction score,4H3417-AA,-1.43
same,interaction score,4H1109-AA,-1.24
same,interaction score,4H3102-AA,-1.27
same,interaction score,4H1348-AA,1.13
same,interaction score,4H675-AA,-1.16
DEIAALEAENAALEAKIAALKAENAALEG [4H171-AA],interaction score,O8-AA,0.645
same,interaction score,O4-AA,-0.185
